The text below walks through data of patent US20200147235A1 (AbbVie / Abbott, published 2020).

The target in assay [1] is T1, Cynomolgus monkey CD98 ECD with C-terminal His-tag (cynomolgus monkey, UniProt P08195 105-529 (human entry)).
T1 construct: also called cyCD98 ECD; recombinant cynomolgus monkey CD98 extracellular domain
T1 chain: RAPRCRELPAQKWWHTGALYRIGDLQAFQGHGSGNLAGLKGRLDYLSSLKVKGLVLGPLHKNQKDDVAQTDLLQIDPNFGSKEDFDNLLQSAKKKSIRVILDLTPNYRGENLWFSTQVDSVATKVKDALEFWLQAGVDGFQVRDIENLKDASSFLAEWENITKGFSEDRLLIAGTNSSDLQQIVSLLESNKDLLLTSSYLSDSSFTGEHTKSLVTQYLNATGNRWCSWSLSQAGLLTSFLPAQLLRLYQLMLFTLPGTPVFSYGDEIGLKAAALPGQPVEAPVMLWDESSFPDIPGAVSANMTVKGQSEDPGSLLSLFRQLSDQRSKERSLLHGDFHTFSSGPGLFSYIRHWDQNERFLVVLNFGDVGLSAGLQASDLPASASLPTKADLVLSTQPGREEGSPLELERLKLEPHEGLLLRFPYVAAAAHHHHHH
Put plainly: SPR Biacore, anti-Fc capture of mAb, CD98 ECD analyte. As to the method:
(§1) The binding kinetics of these purified mouse and rat monoclonal anti-CD98 antibodies for purified recombinant CD98 protein (extracellular domain. ECD) were determined by surface plasmon resonance-based measurements made on Biacore T100/T200 instruments (GE Healthcare, Piscataway, N.J.) at 25° C. using an anti-Fc capture assay approach. Binding kinetic measurements were made in the assay buffer HBS-EP+: 10 mM Hepes, pH 7.4, 150 mM NaCl, 3 mM EDTA, 0.05% Tween 20). For example, approximately 8000 RU of anti-Fc (species specific) polyclonal antibody (Thermo Fisher Scientific Inc. Rockford, Ill.) diluted in 10 mM sodium acetate (pH 4.5) was directly immobilized across a CM5 research grade biosensor chip using a standard amine coupling kit according to manufacturer's instructions and procedures at 25 μg/ml. Unreacted moieties on the biosensor surface were blocked with ethanolamine. The test antibody to be captured as a ligand was diluted in running buffer to ˜0.5 μg/mL and injected over anti-Fc surface at a flow rate of 10 μL/min, CD98 binding and dissociation were observed under a continuous flow rate of 80 μL/min. Human and cynomolgus monkey CD98 ECDs, both with a C-terminal His-tag, are used for this study (Table 3). After each cycle the anti-Fc capture surface was regenerated using 10 mM Glycine-HCl, pH 1.5. During the assay, all measurements were referenced against the capture surface alone (i.e., with no captured test antibody) and buffer-only injections (no antigen) were used for double referencing. For kinetic analysis, rate equations derived from the 1:1 Langmuir binding model were fitted simultaneously, globally and with mass transfer term included to multiple referenced antigen binding curves using Biacore T100T200 Evaluation software.
On the technique in general: Surface plasmon resonance follows binding to a sensor surface in real time, without labels.

The target of assay [2] is T2, Human CD98 ECD with C-terminal His-tag (human, UniProt P08195 105-529).
T2 construct: also called huCD98 ECD; recombinant human CD98 extracellular domain
T2 sequence: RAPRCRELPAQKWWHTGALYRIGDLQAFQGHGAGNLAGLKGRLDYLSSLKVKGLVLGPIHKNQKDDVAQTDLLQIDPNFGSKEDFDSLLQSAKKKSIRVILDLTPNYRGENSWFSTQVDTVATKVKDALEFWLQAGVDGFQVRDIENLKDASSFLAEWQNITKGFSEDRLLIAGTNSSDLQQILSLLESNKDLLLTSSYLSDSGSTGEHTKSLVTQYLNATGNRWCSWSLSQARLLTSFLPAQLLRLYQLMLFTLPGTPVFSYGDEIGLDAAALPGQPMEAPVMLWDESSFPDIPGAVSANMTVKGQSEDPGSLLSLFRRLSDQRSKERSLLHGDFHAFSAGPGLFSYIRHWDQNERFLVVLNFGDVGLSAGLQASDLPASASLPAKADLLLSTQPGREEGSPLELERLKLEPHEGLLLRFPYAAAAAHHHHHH
The description is as above. As to the method:
as §1

B1: Anti-CD98 rat hybridoma antibody Ab11 (antibody, V domains shown)
VH: EVQLVESGGGLVQPGRSLKLSCAASGFTFSDYAMAWVRQAPKKGLEWVAGIIYDGRGTYYRDSVKGRFTISRDNAKSTLYLQMDSLRSEDTATYYCARQGDGTYYYWGYFDYWGQGVMVTVSS
VL: DIVMTQSPSSLAVSAGETVTINCRSSQSLLSSGNQKNYLAWYQQKPGQSPKLLIYWASTRQSGVPDRFIGSGSGTDFTLTISSVQAEDLAIYYCQQYYDTPYTFGAGTKLELK
For B1, in assay [1], the affinity, expressed as Kd, was 72 nM; the off-rate constant (koff) (in general, the rate constant with which the complex falls apart) stood at 0.0017 s⁻¹; the kon – broadly, the second-order rate constant of association – worked out at 24000 M⁻¹ s⁻¹. In assay [2], binding was characterised by a dissociation constant (Kd) of 18 nM, the koff worked out at 0.0012 s⁻¹ and the kon turned out to be 65000 M⁻¹ s⁻¹.

B2: Anti-CD98 rat hybridoma antibody Ab10 (antibody, V domains shown)
VH: EVQLVESGGGLVQPGRSLKLSCAASGFTFSDYAMAWVRQAPKKSLEWVATIIYDGRGTYCRDSVKGRFTISRDNAKSTLYLQMDSLRSEDTATYYCARQGDGTYHYWGYFDYWGQGVMVTVSS
VL: DIVMTQSPSSLAVSAGETVTINCKSSQSLLSSGNQKNYLAWYQQKPGQSPKLLIYWASTRQSGVPDRFIGSGSGTDFTLTISSVQAEDLAIYYCQQYYDTPYTFGAGTKVDLK
Take B2: in assay [1], the Kd (in general, the free concentration of one partner at which half of the binding sites on the other are occupied at equilibrium, for simple one-to-one binding) is 7.8 nM; the koff is 0.00049 s⁻¹; the kon came out at 62000 M⁻¹ s⁻¹. In assay [2], this molecule returned a Kd of 2 nM, a koff of 0.00024 s⁻¹ and a kon of 130000 M⁻¹ s⁻¹.

B3: Anti-CD98 rat hybridoma antibody Ab15 (antibody, V domains shown)
VH: EVQLVESGGGLVQPGRSLKLSCAASGFTFSDYTMAWVRQAPKKGLEWVATIIYDGRGTYYRDSVKGRFTISRDNAKSTLYLQMDSLRSEDTATYYCARQSDGTYYYWGYFDYWGQGVMVTVSS
VL: DIVMTQSPSSLAVSAGETVTINCKSSQSLLFSGNQKNYLAWYQQKPGQSPKLLIYWASTRQSGVPDRFIGSGSGTDFTLTIRSVQAEDLAIYYCQQYYDSPYTFGAGTKLELK
In assay [1], B3 showed a Kd of 3.3 nM, a koff of 9.6e-05 s⁻¹ and a kon of 29000 M⁻¹ s⁻¹. Also, in assay [2], the Kd came out at 0.68 nM, the koff is 5.3e-05 s⁻¹ and the kon stood at 77000 M⁻¹ s⁻¹.

B4: Anti-CD98 rat hybridoma antibody Ab7 (antibody, V domains shown)
VH: QVQLKESGPGLVQPSQTLSLTCTVSGFSLSTYGVIWVRQPPGKGLEWMGVIWANGNTNYNSTLKSRLSISRDTSKSQVYLKMNSLQTEDTATYYCARHYYDGTYYYGYFDYWGQGVMVTVSS
VL: DIVMTQTPSSQAVSAGEKVTMNCKSSQSLLYSENKKNYLAWYQQKPGQSPKLLIYWASTRESGVPDRFIGSGSGTDFTLTISSVQAEDLAVYYCQQYYYFPYTFGPGTKLELK
Consider B4, for which, in assay [1], binding was put at a Kd of 3 nM, the koff was determined as 0.00027 s⁻¹ and the kon turned out to be 91000 M⁻¹ s⁻¹. For the same molecule, in assay [2], the Kd came to 0.76 nM, the koff amounted to 0.00015 s⁻¹ and the kon amounted to 200000 M⁻¹ s⁻¹.

B5: Anti-CD98 rat hybridoma antibody Ab6 (antibody, V domains shown)
VH: QVQLKESGPGLAQPSQTLSLTCTVSGFSLSTYGVIWLRQPPGKGLEWMGVIWTNGNTNYNSTLKSRLSISRDTSESQVYLQMNSLQTEDTATYYCARHYYDGAYYYGYFDYWGQGVMVTVSS
VL: DIVMTQTPSSQAVSAGEKVTMSCKSSQSLLYSENKKNYLAWYQQKPGQSPKLLIYWASTRESGVPDRFIGSGSGTDFTLTISSVQAEDLAVYYCQQYYYFPYTFGAGTKLELK
Regarding B5, in assay [1], binding was characterised by a dissociation constant (Kd) of 5.9 nM, the koff amounted to 0.00037 s⁻¹ and the kon turned out to be 62000 M⁻¹ s⁻¹. In assay [2], binding was characterised by a dissociation constant (Kd) of 1.1 nM, the koff was determined as 0.00016 s⁻¹ and the kon was determined as 150000 M⁻¹ s⁻¹.

B6: Anti-CD98 rat hybridoma antibody Ab9 (antibody, V domains shown)
VH: QVQLKESGPGLVQPSQTLSLTCAVSGFSLSNYGVIWVRQPPGKGLEWMAVIWTNGNTNYNSTLKSRLSISRDTSKSQVYLKMNSLQTEDTATYYCARHYYDGTYYYGYFDYWGQGVMVTVSS
VL: DIVMTQTPSSQAVSAGEKVTMSCKSSQSLLYTENKKNYLAWYQQKPGQSPKLLIYWASTRESGVPDRFMGSGSGTDFTLTISSVQAEDLAVYYCQQYYYFPYMFGAGTKLELK
As for B6, in assay [1], the Kd amounted to 9.9 nM, the koff worked out at 0.00051 s⁻¹ and the kon came out at 51000 M⁻¹ s⁻¹. In assay [2], this molecule had a Kd of 1.2 nM, a koff of 0.00015 s⁻¹ and a kon of 130000 M⁻¹ s⁻¹.

B7: Anti-CD98 murine hybridoma antibody Ab4 (antibody, V domains shown)
VH: EVKLVESGGGLVQPGGSLRLSCTTSGFTFTDYYMSWVRQPPGKALEWLGFIRNKATIYTTEYSASVKGRFTISRDNSQSILYLQMNTLRAEDSATYYCARASYGNSEGWFAYWGQGTLVTVSA
VL: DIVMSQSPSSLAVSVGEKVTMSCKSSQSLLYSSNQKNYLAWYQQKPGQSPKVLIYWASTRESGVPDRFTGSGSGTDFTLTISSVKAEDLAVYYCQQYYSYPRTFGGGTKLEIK
As for B7, in assay [1], the dissociation constant (Kd) is 1.8 nM, the off-rate constant (koff) is 1.7e-05 s⁻¹ and the kon came to 9700 M⁻¹ s⁻¹. Moreover, in assay [2], the affinity, expressed as Kd, was 0.83 nM; the koff came to 3.7e-05 s⁻¹; the association rate constant (kon) was 44000 M⁻¹ s⁻¹.

B8: Anti-CD98 murine hybridoma antibody Ab5 (antibody, V domains shown)
VH: EVKLVESGGGLVQPGGSLRLSCATSGFTFTDYYMTWVRQPPGKALEWLGFIRNKANGYTTEYSASVKGRFTISRDNSLSILYLQMNTLRAEDSATYYCARASYVNSEGWFAYWGQGTLVTVSA
VL: DIVMSQSPSSLAVSVGEKVTMSCKSSQSLLYSSNQKNYLAWYQQKLGQSPKLLIYWASTRESGVPDRFTGSGSGTDFTLTISSVKAEDLAVYYCQHYYSYPRTFGGGTKLEIK
In assay [1], B8 displayed a Kd of 11 nM, a koff of 0.00022 s⁻¹ and a kon of 21000 M⁻¹ s⁻¹. Besides, in assay [2], the Kd turned out to be 2.2 nM, the koff came to 0.00012 s⁻¹ and the kon amounted to 52000 M⁻¹ s⁻¹.

B9: Anti-CD98 murine hybridoma antibody Ab2 (antibody, V domains shown)
VH: EVKLVESGGGLVQPGGSLRLSCATSGFNFTDYYMSWVRQPPGKALEWLGFIRNKANGYTTEYSASVKGRFTISRDDSQSILYLQMNTLRAEDSATYYCARASYGNSEGWFAYWGQGTLVTVSA
VL: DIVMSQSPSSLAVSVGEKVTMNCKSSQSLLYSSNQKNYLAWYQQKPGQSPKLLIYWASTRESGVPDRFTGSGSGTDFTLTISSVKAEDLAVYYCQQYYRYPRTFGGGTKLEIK
In assay [1], B9 returned a Kd of 37 nM, a koff of 0.00086 s⁻¹ and a kon of 24000 M⁻¹ s⁻¹. Besides, in assay [2], binding was characterised by a dissociation constant (Kd) of 1.1 nM, the koff was determined as 8.1e-05 s⁻¹ and the kon was determined as 73000 M⁻¹ s⁻¹.

B10: Anti-CD98 murine hybridoma antibody Ab3 (antibody, V domains shown)
VH: EVKLVESGGGLVQPGNSLRLSCATSGFTFIDYYMSWVRQSPGKALEWLGFIRNKANGYTTEYSASVKGRFTISRDNSQSILYLQMDTLRAEDSATYYCTRDRPAWFVYWGQGTLVTVSA
VL: DIVMSQSPSSLAVSVGEKVTMSCKSSQSLLYSSNQKNYLAWYQQKPGQSPKLLIYWASTRESGVPDRFTGSGSGTDFTLTFSSVRAEDLAVYYCQQYYSYPYTFGGGTKLEIK
Regarding B10, in assay [1], the equilibrium dissociation constant (Kd) worked out at 30 nM, the off-rate (koff) amounted to 0.0012 s⁻¹ and the kon stood at 38000 M⁻¹ s⁻¹. In assay [2], the Kd came to 15 nM, the dissociation rate constant (koff) worked out at 0.003 s⁻¹ and the kon was found to be 200000 M⁻¹ s⁻¹.
